Read-outs that look alike come from different tables or passages of the source. Where a SMILES comes first, the peptide text is derived from it. The star is where a group is joined. Bz = O=C(c1ccccc1)*
How the values were obtained:
[1] = molecular target: Keap1-Nrf2 protein-protein interaction (CFP-Nrf2 and YFP-Kelch) (Homo sapiens, UniProt Q14145); assay: FRET competition assay; type: binding; details: for binding activity relative to peptide 1: FRET competition, 7-mer peptides; for effect on association between CFP-Nrf2 and YFP-Kelch (FRET efficiency): unlabeled 16-mer peptides, competition assay, Fig. 5
[2] = test system: Keap1-Nrf2 protein-protein interaction; details: read-out: FP IC50 ± SE; previously described FP assay; cited from earlier work
[3] = molecular target: T1, YFP conjugated to the human Keap1 Kelch domain (YFP-Kelch) (human, UniProt Q14145 321-609); assay: FRET or BRET
[4] = molecular target: T1, YFP conjugated to the human Keap1 Kelch …; assay: FRET or BRET; remark: listed apart in the source
[5] = molecular target: T1, YFP conjugated to the human Keap1 Kelch …; assay: FRET or BRET; remark: listed apart in the source

Chain of Keap1-Nrf2 protein-protein interaction (CFP-Nrf2 and YFP-Kelch) (Q14145 321-609): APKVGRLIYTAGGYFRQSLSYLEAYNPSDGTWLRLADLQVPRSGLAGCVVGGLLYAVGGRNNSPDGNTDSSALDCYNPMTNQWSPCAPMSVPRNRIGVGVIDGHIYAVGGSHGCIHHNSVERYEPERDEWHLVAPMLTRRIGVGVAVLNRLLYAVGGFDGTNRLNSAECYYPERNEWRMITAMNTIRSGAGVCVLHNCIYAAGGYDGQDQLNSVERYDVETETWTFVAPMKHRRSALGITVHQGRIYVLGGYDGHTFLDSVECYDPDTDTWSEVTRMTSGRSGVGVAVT
T1 sequence (Q14145 321-609): as above

| Molecule | effect on association between CFP-Nrf2 and YFP-Kelch (FRET efficiency) [1] | Kd [3] [nM] | further results |
| --- | --- | --- | --- |
| CC(=O)N[C@@H](CC(=O)O)C(=O)N1CCC[C@H]1C(=O)N[C@@H](CCC(=O)O)C(=O)N[C@H](C(=O)NCC(=O)N[C@@H](CCC(=O)O)C(=O)N[C@@H](Cc1ccccc1)C(=O)O)[C@@H](C)O [Peptide 3, Ac-DPETGEF-OH] (Ac-DPETGEF-OH) |  |  | binding activity relative to peptide 1 [1]: increased binding activity; IC50 [2]: 250 ± 40 nM |
| CC(C)C[C@H](NC(=O)[C@H](CCC(=O)O)NC(=O)CNC(=O)[C@@H](NC(=O)[C@H](CCC(=O)O)NC(=O)[C@@H]1CCCN1C(=O)[C@H](CC(=O)O)NC(=O)c1ccccc1)[C@@H](C)O)C(=O)O [Peptide 4, Ph-DPETGEL-OH] (Bz-DPETGEL-OH; N-terminus assumed) |  |  | binding activity relative to peptide 1 [1]: increased binding activity; IC50 [2]: 160 ± 20 nM |
| E78P/F83L (AFFAQLQLDPETGELL) | dose-dependent reduction in FE |  |  |
| E79Q (AFFAQLQLDEQTGEFL) [Peptide E79Q, reference compound] | unable to perturb the association |  |  |
| E82D (AFFAQLQLDEETGDFL) [Peptide E82D, reference compound] | unable to perturb the association |  |  |
| T80K (AFFAQLQLDEEKGEFL) [Peptide T80K, reference compound] | unable to perturb the association |  |  |
| AFFAQLQLDPETGELL [CFP-E78P/F83L] |  | 40 |  |
| AFFAQLQLDPETGELL [E78P/F83L unlabeled 16-mer peptide] |  |  | IC50 [4]: 80 nM |
| Ac-DPETGEF-OH [peptide 3, Ac-DPETGEF-OH] |  |  | IC50 [5]: 330 nM |
| AFFAQLQLDEQTGEFL [CFP-E79Q] |  | > 100 |  |
| AFFAQLQLDEEKGEFL [CFP-T80K] |  | > 100 |  |
| AFFAQLQLDEETGDFL [CFP-E82D] |  | > 100 |  |
